Experimental findings from publication PMC3134789 are described below.

By stoichiometry N is commonly meant the number of molecules, sites or subunits per partner or assembly.

Data set [1] deals with Nova-1 KH2 domain (individual domain). The data set is described as follows: AUC.
The target is the same in data set [2]. Put plainly: SEC.
Another data set concerns the target T1, Nova-1 KH2 (UniProt Q9JKN6 171-237).
T1 sequence: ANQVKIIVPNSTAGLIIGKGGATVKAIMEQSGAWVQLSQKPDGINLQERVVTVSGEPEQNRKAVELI
The data set is described as follows: NMR.

Nova-1 KH2 domain (individual domain) (domain or fragment), sequence (P51513 44-493): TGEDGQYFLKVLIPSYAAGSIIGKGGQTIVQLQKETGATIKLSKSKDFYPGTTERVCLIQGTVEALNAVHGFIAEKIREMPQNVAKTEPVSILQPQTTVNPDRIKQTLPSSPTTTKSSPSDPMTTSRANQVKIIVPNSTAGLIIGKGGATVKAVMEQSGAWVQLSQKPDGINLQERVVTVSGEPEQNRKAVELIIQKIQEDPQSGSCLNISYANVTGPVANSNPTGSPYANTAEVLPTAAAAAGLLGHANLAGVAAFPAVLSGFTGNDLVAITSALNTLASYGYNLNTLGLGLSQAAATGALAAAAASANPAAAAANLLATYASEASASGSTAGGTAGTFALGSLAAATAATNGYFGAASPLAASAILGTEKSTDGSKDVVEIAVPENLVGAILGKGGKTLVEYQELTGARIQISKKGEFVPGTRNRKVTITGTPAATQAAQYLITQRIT

As for “Nova-1 KH2 domain (individual domain) (domain or fragment)”, the stoichiometry N in data set [1] and in data set [2] was 2 each time.

Turning to UCAC (ssRNA) [UCAC tetranucleotide], the binding result with Nova-1 KH2 is given as “binds”.
